Results from patent US20220041685A1 (SUNNYBROOK RESEARCH INSTITUTE, published 2022).

T1: hICOS-Fc (R&D Systems) (human, UniProt Q9Y6W8 21-141, limits assumed)
T1 construct: Bought from R&D Systems; also called human ICOS; not shown: Fc part of a bought fusion protein; not described
T1 sequence (looked up): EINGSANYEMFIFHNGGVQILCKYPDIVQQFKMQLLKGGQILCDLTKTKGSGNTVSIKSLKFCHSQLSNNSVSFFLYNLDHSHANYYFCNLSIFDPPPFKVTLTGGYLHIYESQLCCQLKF


Assays:
[1] = molecular target: putative VISTA-receptor on murine T-cells (2.10 T-cell clone; primary CD4+ T-cells) (mouse); test: cell-based or functional assay
hICOS-Fc (R&D Systems) [2] = molecular target: T1, hICOS-Fc (R&D Systems); test: SPR single cycle kinetics (Biacore T200), hICOS-Fc immobilized on a CM5 chip
hICOS-Fc (R&D Systems) [3] = molecular target: T1, hICOS-Fc (R&D Systems); test: SPR single cycle kinetics (Biacore T200), hICOS-Fc immobilized on a CM5 chip, 1:1 model

Row | anti-CD3-induced 2.10 cell proliferation (3H-thymidine) [1] | fold stronger KD than hICOSL-Fc (hICOS-Fc (R&D Systems) [2]) | Kd (hICOS-Fc (R&D Systems) [3]) | Molecule
1 | > 30 µg/mL |  |  | VISTA-Fc (murine VISTA extracellular domain fused to the human IgG-1 Fc region; dimeric) (Fc fusion)
2 | 1 µg/mL |  |  | murine VISTA.COMP pentamer, histidine tagged (VISTA.COMP.his) (ligand)
3 |  | ~3 fold | 0.9 nM | human ICOS-L.COMP pentamer (human ICOS-L extracellular domain fused to the COMP pentamerization domain, C-terminal histidine tag) (ligand) DTQEKEVRAMVGSDVELSCACPEGSRFDLNDVYVYWQTSESKTVVTYHIPQNSSLENVDSRYRNRALMSPAGMLRGDFSLRLFNVTPQDEQKFHCLVLSQSLGFQEVLSVEVTLHVAANFSVPVVSAPHSPSQDELTFTCTSINGYPRPNVYWINKTDNSLLDQALQNDTVFLNMRGLYDVVSVLRIARTPSVNIGCCIENVLLQQNLTVGSQTGNDIGERDKITENPVSTGEKNAATWSDLGPQMLRELQETNAALQDVRELLRQQVREITFLKNTVMECDACG
4 |  |  | 2.9 nM | hICOSL-Fc (R&D Systems), dimeric human ICOS-L ECD Fc fusion (Fc fusion, not shown: a dimerising Fc or GST; small tags and cut ends, Fc-mediated dimer (two copies); the Fc is left out.) DTQEKEVRAMVGSDVELSCACPEGSRFDLNDVYVYWQTSESKTVVTYHIPQNSSLENVDSRYRNRALMSPAGMLRGDFSLRLFNVTPQDEQKFHCLVLSQSLGFQEVLSVEVTLHVAANFSVPVVSAPHSPSQDELTFTCTSINGYPRPNVYWINKTDNSLLDQALQNDTVFLNMRGLYDVVSVLRIARTPSVNIGCCIENVLLQQNLTVGSQTGNDIGERDKITENPVSTGEKNAATWS
